From US20190048038A1, “METHOD FOR GENERATING CELL-PENETRATING STAPLED PEPTIDES THAT LACK NONSPECIFIC MEMBRANE-LYTIC PROPERTIES FOR THERAPEUTIC TARGETING” (Dana-Farber Cancer Institute, Inc., priority 2016, published 2019)
Positions of bridges follow the written chain, without caps; N, C: chain ends. Non-standard residues stand in square brackets, D forms with d. Residues, ends and D or L forms follow the SMILES beside them. No end group written: not given here. *: point of attachment. FITC = O=C1OC2(c3ccc(O)cc3Oc3cc(O)ccc32)c2ccc(NC(=S)*)cc21; R8 = C=CCCCCCC[C@@](C)(N)C(=O)O; Cba = N[C@@H](CC1CCC1)C(=O)O; S5 = C=CCCC[C@](C)(N)C(=O)O; βAla = NCCC(=O)O

Key:
[1] = test system: BCL-XL-reconstituted p185^+Arf^−/−Mcl-1^del B-ALL cells; test: LDH release assay (membrane lysis) in B-ALL cells; conditions: 10 μM peptide, 30 min, serum-free
Experimental: Data are normalized based on the response to treatment with 1% Triton X-100 (100% release) and media alone (0% LDH release). Error bars are mean±s.d. for experiments performed in technical duplicate and repeated twice.
B-ALL and Jurkat T cells were plated in 96-well format (2×10^4 cells per well) in serum-free RPMI. […] The plate was centrifuged at 1500 rpm for 5 min at 4° C., and 80 μL of cell culture media was transferred to a clear plate (Corning), incubated with 80 μL of LDH reagent (Roche) for 15 min while shaking, and absorbance measured at 490 nm on a microplate reader (SpectraMax M5 Microplate Reader, Molecular Devices).
In order to identify compounds whose cytotoxicity correlates with the capacity for cellular uptake and intracellular target engagement, it is important to rule out nonspecific cytotoxicity due to potential plasma membrane lysis.

BCL-XLΔC [2] = target: T1, BCL-XLΔC (Homo sapiens, UniProt Q07817); test: fluorescence polarization
Target sequence in this assay (Q07817 1-212, stated change not applied): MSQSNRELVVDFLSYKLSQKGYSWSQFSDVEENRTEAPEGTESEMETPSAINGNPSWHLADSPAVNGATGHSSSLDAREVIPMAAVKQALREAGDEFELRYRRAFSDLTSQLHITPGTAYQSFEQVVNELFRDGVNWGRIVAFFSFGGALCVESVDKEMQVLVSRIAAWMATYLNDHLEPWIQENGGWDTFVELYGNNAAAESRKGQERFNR

[3] = test system: mouse embryonic fibroblasts (MEFs); test: ImageXpress microscopy cellular uptake of FITC-peptides (TIFI); type: cell-based; conditions: MEFs 2×10^4 cells/well, 500 nM FITC-peptide, 4 h, 0% FBS, per cell basis
Source text: The cellular penetrance of a peptide of interest can be assessed by any method known in the art. For example, ImageXpress microscopy analysis may be employed as described in Example 1. The total internalized FITC intensity (TIFI) can be used as a way to determine cellular uptake of a hydrocarbon-stapled and/or stitched peptide by a cell (e.g., any cell described herein). Methods of determining TIFI are described in detail in Examples 2 and 3 of the instant specification. Briefly, a custom module (CM) was created to develop a rigorous quantitation platform for measuring cellular uptake of hydrocarbon-stapled and/or stitched peptides derivatized with a FITC fluorophore at the N-terminus. The CM was developed based on (1) defining the parameters of cellular uptake (e.g., excluding extracellular aggregates and auto-fluorescent debris), (2) defining a pixel boundary to avoid quantitation of extracellular, membrane-adherent peptides, (3) excluding out-of-focus fluorescence from the FITC signal outliers. Once the CM parameters are set, images can be acquired at 20× and 40× magnification for per cell basis fluorescence, and four distinct central locations of the cellular field are visualized. Next signal-to-noise ratios are maximized to ensure optimal sensitivity and specificity of internal FITC-peptide signal. […]

[4] = Percent α-helicity by circular dichroism; type: physicochemical; conditions: 222 nm
Experimental: FIG. 19 is a table showing the sequence composition and biophysical parameters of a BIM BH3 staple scanning library. Hydrophobicity was calculated using techniques generally known in the art^39, with “X” assigned the hydrophobicity value of Leu. Retention time in minutes reflects the peptide elution time from an HPLC C18 column (Agilent, 1200) run for 20 minutes using a 5-95% water: acetonitrile gradient (10 mM ammonium carbonate). Percent α-helicity of stapled peptides (50 μM, 10% acetonitrile in water) was derived from circular dichroism spectra using the mdeg value at 222 nm, as described^34. Net charge was calculated by summing the positive and negative charges of Arg and Asp/Glu, respectively. The isoelectric point (pI) calculation employed the EMBOSS values for pKa.
The alpha-helicity of a peptide of interest can be determined by any method known in the art. In some cases, circular dichroism or nuclear magnetic resonance spectroscopy (NMR) may be employed. Peptides are dissolved in an aqueous solution (e.g., 5 mM potassium phosphate solution at pH 7, or distilled H2O, to concentrations of 25-50 μM). […] The α-helical content of each peptide is calculated by dividing the mean residue ellipticity by the reported value for a model helical decapeptide (Yang et al., Methods Enzymol. 130:208 (1986)). […]

cells = conditions: 20 μM peptide
Source text: Data are normalized based on the response to treatment with 1% Triton X-100 (100% release) and media alone (0% LDH release). Error bars are mean±s.d.

SAOS-2 cells = test: Epifluorescence (IXM) microscopy cellular penetrance of ATSP-7041; type: cell-based
Source text: Error bars represent mean±s.d.
Images were acquired by IXM.

BCL-XLΔC [5] = target: T1, BCL-XLΔC; test: IC50 (nM); design: BCL-XL ΔC was expressed as a glutathione-S-transferase (GST) fusion protein; GST (N, cleaved yes); made in house; host or cells: Escherichia coli BL21 (DE3), pGEX2T vector
Source text: Table printed on a drawing sheet, FIG. 4B
Head of the field: IC50 (nM)
First copying reader's note: The table is the legend of a binding plot (mP vs [BCL-XL ΔC], M); plot marker symbols before each sequence are left out, and some mutated residues are printed inside a box.

CC[C@H](C)[C@H](NC(=O)CCNC(=S)Nc1ccc2c(c1)C(=O)OC21c2ccc(O)cc2Oc2cc(O)ccc21)C(=O)N[C@@H](CCCNC(=N)N)C(=O)N[C@H](C(=O)N[C@@H](C)C(=O)N[C@@H](CCC(N)=O)C(=O)N[C@@H](CCC(=O)O)C(=O)N[C@@H](CC(C)C)C(=O)N[C@@H](CCCNC(=N)N)C(=O)N[C@@]1(C)CCCC=CCCC[C@@](C)(C(=O)N[C@@H](Cc2ccccc2)C(=O)N[C@@H](CC(N)=O)C(=O)N[C@@H](C)C(=O)N[C@@H](Cc2ccc(O)cc2)C(=O)N[C@@H](Cc2ccc(O)cc2)C(=O)N[C@@H](C)C(=O)N[C@@H](CCCNC(=N)N)C(=O)N[C@@H](CCCNC(=N)N)C(N)=O)NC(=O)[C@H](CC(=O)O)NC(=O)CNC(=O)[C@H]([C@@H](C)CC)NC1=O)[C@@H](C)CC [W147R, IRIAQELRXIGDXFNAYYARR]
LDH release, membrane lytic activity [1]: promote lysis

BIM SAHBA1
IC50 (BCL-XLΔC [2]): 13.8 nM

IWIAQLLRXIGDXFNAYYARR
IC50 (BCL-XLΔC [2]): > 1000 nM

CC[C@H](C)[C@H](NC(=O)CCNC(=S)Nc1ccc2c(c1)C(=O)OC21c2ccc(O)cc2Oc2cc(O)ccc21)C(=O)N[C@@H](Cc1c[nH]c2ccccc12)C(=O)N[C@H](C(=O)N[C@@H](C)C(=O)N[C@@H](CCC(N)=O)C(=O)N[C@@H](CCC(=O)O)C(=O)N[C@@H](CC(C)C)C(=O)N[C@@H](CCCNC(=N)N)C(=O)N[C@@]1(C)CCCC=CCCC[C@@](C)(C(=O)N[C@@H](Cc2ccccc2)C(=O)N[C@@H](CC(N)=O)C(=O)N[C@@H](CCC(=O)O)C(=O)N[C@@H](Cc2ccc(O)cc2)C(=O)N[C@@H](Cc2ccc(O)cc2)C(=O)N[C@@H](C)C(=O)N[C@@H](CCCNC(=N)N)C(=O)N[C@@H](CCCNC(=N)N)C(N)=O)NC(=O)[C@H](CC(=O)O)NC(=O)CNC(=O)[C@H]([C@@H](C)CC)NC1=O)[C@@H](C)CC [A161E, IWIAQELRXIGDXFNEYYARR]
total internalized FITC intensity (TIFI), cellular uptake [3]: retention of high level TIFI

IWIAQELRXIGDXFNAYYIRR
IC50 (BCL-XLΔC [2]): 45.7 nM

LTFZEYWANCbXSAA (LTF[R8]EYWAN[Cba][S5]SAA; staple 4-11) [ATSP-7041, i, i+7 stapled peptide; X S-pentenyl alanine, Z R-octenyl alanine, Cb cyclobutylalanine]
α-helicity [4]: 70% | nonspecific membrane lytic properties (LDH release) (cells): lacks nonspecific membrane lytic properties | cellular penetrance (TIFI value) (SAOS-2 cells): effective cellular penetrance

CC[C@H](C)[C@H](NC(=O)CCNC(=S)Nc1ccc2c(c1)C(=O)OC21c2ccc(O)cc2Oc2cc(O)ccc21)C(=O)N[C@@H](Cc1c[nH]c2ccccc12)C(=O)N[C@H](C(=O)N[C@@H](C)C(=O)N[C@@H](CCC(N)=O)C(=O)N[C@@H](CCC(=O)O)C(=O)N[C@@H](CC(C)C)C(=O)N[C@@H](CCCNC(=N)N)C(=O)N[C@@]1(C)CCCC=CCCC[C@@](C)(C(=O)N[C@@H](Cc2ccccc2)C(=O)N[C@@H](CC(N)=O)C(=O)N[C@@H](C)C(=O)N[C@@H](Cc2ccc(O)cc2)C(=O)N[C@@H](Cc2ccc(O)cc2)C(=O)N[C@@H](C)C(=O)N[C@@H](CCCNC(=N)N)C(=O)N[C@@H](CCCNC(=N)N)C(N)=O)NC(=O)[C@H](CC(C)C)NC(=O)CNC(=O)[C@H]([C@@H](C)CC)NC1=O)[C@@H](C)CC [IWIAQELRXIGLXFNAYYARR] ({FITC-βAla}-IWIAQELR[S5]IGL[S5]FNAYYARR-NH2; staple 9-13)
IC50 (BCL-XLΔC [5]): > 1000 nM

CC[C@H](C)[C@H](NC(=O)CCNC(=S)Nc1ccc2c(c1)C(=O)OC21c2ccc(O)cc2Oc2cc(O)ccc21)C(=O)N[C@@H](Cc1c[nH]c2ccccc12)C(=O)N[C@H](C(=O)N[C@@H](C)C(=O)N[C@@H](CCC(N)=O)C(=O)N[C@@H](CCC(=O)O)C(=O)N[C@@H](CC(C)C)C(=O)N[C@@H](CCCNC(=N)N)C(=O)N[C@@]1(C)CCCC=CCCC[C@@](C)(C(=O)N[C@@H](Cc2ccccc2)C(=O)N[C@@H](CC(N)=O)C(=O)N[C@@H](C)C(=O)N[C@@H](Cc2ccc(O)cc2)C(=O)N[C@@H](Cc2ccc(O)cc2)C(=O)N[C@H](C(=O)N[C@@H](CCCNC(=N)N)C(=O)N[C@@H](CCCNC(=N)N)C(N)=O)[C@@H](C)O)NC(=O)[C@H](CC(=O)O)NC(=O)CNC(=O)[C@H]([C@@H](C)CC)NC1=O)[C@@H](C)CC [A164T, IWIAQELRXIGDXFNAYYTRR]
LDH release, membrane lytic activity [1]: promote lysis

IWIALELRXIGDXFNAYYARR
IC50 (BCL-XLΔC [2]): > 1000 nM

IWIAQELRXIGDXFNAIYARR
IC50 (BCL-XLΔC [2]): 59.4 nM
